Assay results as given in patent US20240270840A1 (NECTIN THERAPEUTICS, published 2024).

T1: Human CD112R (PVRIG) (human, UniProt Q6DKI7 41-171, limits assumed)
T1 sequence (looked up): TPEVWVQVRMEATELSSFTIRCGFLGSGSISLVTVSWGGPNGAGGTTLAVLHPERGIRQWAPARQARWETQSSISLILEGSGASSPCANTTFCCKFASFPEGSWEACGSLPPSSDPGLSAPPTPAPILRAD

T2: Human CD112R expressed on cells (human, UniProt Q6DKI7 1-326)
T2 construct: whole, on cells; also called HuCD112R; hCD112R
T2 sequence (looked up): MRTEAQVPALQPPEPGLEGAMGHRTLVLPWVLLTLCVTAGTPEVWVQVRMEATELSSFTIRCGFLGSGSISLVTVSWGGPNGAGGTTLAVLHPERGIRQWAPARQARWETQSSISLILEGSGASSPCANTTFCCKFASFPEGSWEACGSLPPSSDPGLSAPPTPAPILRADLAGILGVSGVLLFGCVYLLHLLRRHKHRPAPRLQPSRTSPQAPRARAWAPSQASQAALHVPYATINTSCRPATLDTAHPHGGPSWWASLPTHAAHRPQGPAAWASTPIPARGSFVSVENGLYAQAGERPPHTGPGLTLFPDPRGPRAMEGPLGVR


How the values were obtained:
Human CD112R (PVRIG) [1] = target: T1, Human CD112R (PVRIG); assay: affinity of glycosylation-motif variants (Table 2; method not named there)
[2] = target: Cynomolgus monkey (Macaca fascicularis) CD112R expressed on cells (cynomolgus monkey (Macaca fascicularis)); assay: flow cytometry on cynomolgus CD8 T cells (endogenous CD112R)
[3] = target: T2, Human CD112R expressed on cells; assay: flow cytometry; max binding on human NK cells against max binding on cynomolgus CD8 T cells
Description: (§1) The humanized mAbs were tested for binding of endogenous and overexpressed human and cynomolgus CD112R.
(§2) Table 7 summarizes EC50 values calculated based on the binding curves of selected humanized mAbs to cynomolgus CD8 T cells and human NK cells, both cells expressing endogenous CD112R of the relevant species. Assay was performed as in Table 6. An anti-CD112R mAb disclosed in WO2016134333 was used for comparison. All the humanized variants have a complete cross-reactivity between the human and cynomolgus targets.

[4] = target: T2, Human CD112R expressed on cells; assay: flow cytometry on 293T cells expressing human CD112R; 99-0.05 nM, three-fold dilutions
Description: as §1

[5] = target: T2, Human CD112R expressed on cells; assay: flow cytometry on human NK cells (endogenous CD112R)
Human CD112R (PVRIG) [6] = target: T1, Human CD112R (PVRIG); assay: SPR (Biacore); purified full antibody
[7] = target: T2, Human CD112R expressed on cells; assay: flow cytometry on human NK cells (endogenous CD112R); remark: listed apart in the source
Description: as §1, §2

[8] = target: Cynomolgus monkey (Macaca fascicularis) CD112R expressed on cells (cynomolgus monkey (Macaca fascicularis)); assay: flow cytometry; EC-50 on cynomolgus CD8 T cells against EC-50 on human NK cells
[9] = target: Cynomolgus monkey (Macaca fascicularis) CD112R expressed on cells (cynomolgus monkey (Macaca fascicularis)); assay: flow cytometry on 293T cells; EC50 on cynomolgus CD112R against EC50 on human CD112R
[10] = target: Cynomolgus monkey (Macaca fascicularis) CD112R expressed on cells (cynomolgus monkey (Macaca fascicularis)); assay: flow cytometry on 293T cells expressing cynomolgus CD112R; 99-0.05 nM, three-fold dilutions
[11] = target: T2, Human CD112R expressed on cells; assay: flow cytometry competition on 293T cells overexpressing CD112R; antibody 40-0.018 nM; competitor hNectin-2-mIgG2a at 125 nM
Description: The humanized anti-CD112R antibodies are potent blockers of CD112R—Nectin-2 interactions. […] The antibodies were added in a range of concentrations of 40-0.018 nM in a series of three-fold dilutions. The amount of bound hNectin-2-mIgG2a was detected by anti-mouse antibodies fluorescently labeled with Dy-light 647 (115-606-071 Jackson immunoresearch) and analyzed by FACS.

[12] = target: T2, Human CD112R expressed on cells; assay: FACS, chimeric mAb 99-0.4 nM in three-fold dilutions on HEK 293T cells overexpressing CD112R, anti-human-APC 1:200
Description: For detection, anti-human-APC antibody (Ab) was used at 1:200 dilution, and cell binding was analyzed by FACS. FIG. 3C—8866 cells ([…]) overexpressing human Nectin-2 were incubated with 10 μg/ml of CD112R-Fc in the presence of isotype control Ab, or with the indicated clones at 4 μg/ml. Bound CD112R-Fc was detected by anti-mouse-Dy-647 1:250 dilution and analyzed by FACS. The blocking of CD112R binding exceeded 95% by all the variants.
Binding was analyzed by FACS and used for calculation of EC-50 values. […] The N31S variant, engineered to remove an N-Linked glycosylation motif at the CDR1 of the heavy chain, had improved (sub-nM) binding to human CD112R in this cell-based assay.

[13] = target: T2, Human CD112R expressed on cells; assay: flow cytometry EC-50 on human NK cells, against the reference Ab (member assigned from Table 7)
Human CD112R (PVRIG) [14] = target: T1, Human CD112R (PVRIG); assay: SPR (Biacore); purified full antibody; * limit of the Biacore instrument sensitivity

Kd (Human CD112R (PVRIG) [1]) [nM]	Relative Kd (against VH0Vk0) (Human CD112R (PVRIG) [1])	EC50 [2] [nM]	Max binding Cyno (MFI a.u - background) [2] [MFI a.u]	Ratio Hu/Cyno (max binding) [3]	EC50 [4] [nM]	Max binding Hu (MFI a.u - background) [5] [MFI a.u]	Kd (Human CD112R (PVRIG) [6]) [nM]	Relative Kd (against VH0K0 N28T) (Human CD112R (PVRIG) [6])	koff (Human CD112R (PVRIG) [6]) [s⁻¹]	kon (Human CD112R (PVRIG) [6]) [M⁻¹ s⁻¹]	EC50 [7] [nM]	Ratio Cyno/Hu (EC-50) [8]	Ratio Cyno/Hu (EC50) [9]	EC50 [10] [nM]	Binder	other results
0.116	0.69														VH0 N28Q Vk0 (antibody, human IgG1, V domains shown, Variant of VH0K0) VH: QVQLQQPGAELVKPGTSVKLSCKASGYQFTSYWINWVKLRPGQGLEWIGDIYPGSYIPNYNEKFKNKATLTVDTSSSTAYMQLTSLASEDSALYYCAGGYFDVWGAGTTVTVSS VL: DIVMTQSPSSLSVSAGEKVTMSCKSSQSLLSSGNQKNYLAWYQQKPGQPPKLLIYGASTRESGVPDRFTGSGSGTDFTLTISSVQAEDLAVYYCQNDHSYPYTFGGGTKLEIK	
		1.29	839	1.21	0.28	1020	0.112	0.89	3.77e-05	336000	1.06	1.22	2.54	0.71	H11K2 (full humanized antibody) (antibody, V domains shown, Humanized full antibody, human IgG1; also called VH11K2) VH: QVQLVQSGAEVKKPGSSVKVSCKASGYTFTSYWINWVRQAPGQGLEWIGDIYPGSYIPNYNEKFKNRATLTVDTSASTAYMELSSLRSEDTAVYYCAGGYFDVWGQGTTVTVSS VL: DIVMTQSPDSLAVSLGERATINCKSSQSLLSSGNQKNYLAWYQQKPGQPPKLLIYGASTRESGVPDRFTGSGSGTDFTLTISSLQAEDVAVYYCQNDHSYPYTFGQGTKLEIK	EC50 [11]: 0.32 nM; EC-90 [11]: 9.9 nM
															Clone 15 (antibody, V domains shown) VH: QVQLQQPGAELVKPGTSVKLSCKASGYNFTSYWINWVKLRPGQGLEWIGDIFPGSYSPNYNKKFKRKATLTVDTSSSTAYMQLSSLASEDSALYYCAGGYFDVWGAGTTVTVSS VL: DIVMTQSPSSLSVSAGEKVTMSCKSSQSLLNSGSQKNYLAWYQQKPGQPPKLLIYGASTRESGVPDRFTGSGSGTDFTLTISFVQAEDLAVYYCQNDHSYPYTFGGGTKLEIK	EC50 [12]: 1.29 nM
		1.39	933	1.06	0.3	988	0.121	0.96	4.36e-05	361000	0.77	1.81	1.67	0.5	VH10K3 (full humanized antibody) (antibody, V domains shown, Humanized full antibody, human IgG1) VH: QVQLVQSGAEVKKPGSSVKVSCKASGYTFTSYWINWVRQAPGQGLEWIGDIYPGSYIPNYNEKFKNRATLTVDTSASTAYMELSSLASEDTALYYCAGGYFDVWGQGTTVTVSS VL: DIVMTQSPDSLAVSLGERATINCKSSQSLLSSGNQKNYLAWYQQKPGQPPKLLIYGASTRESGVPDRFSGSGSGTDFTLTISSLQAEDVAVYYCQNDHSYPYTFGQGTKLEIK	fold improved binding compared to the reference Ab [13]: > 2 fold
		1.45	914	1.07	0.4	975	0.119	0.94	4.27e-05	359000	0.86	1.69	1.07	0.42	VH10K2 (full humanized antibody) (antibody, V domains shown, Humanized full antibody, human IgG1) VH: QVQLVQSGAEVKKPGSSVKVSCKASGYTFTSYWINWVRQAPGQGLEWIGDIYPGSYIPNYNEKFKNRATLTVDTSASTAYMELSSLASEDTALYYCAGGYFDVWGQGTTVTVSS VL: DIVMTQSPDSLAVSLGERATINCKSSQSLLSSGNQKNYLAWYQQKPGQPPKLLIYGASTRESGVPDRFTGSGSGTDFTLTISSLQAEDVAVYYCQNDHSYPYTFGQGTKLEIK	fold improved binding compared to the reference Ab [13]: > 2 fold
0.102	0.61						0.126	1	5.02e-05	400000					VH0 N28T Vk0 (antibody, V domains shown, Variant of VH0K0; also called VH0K0 N28T) VH: QVQLQQPGAELVKPGTSVKLSCKASGYTFTSYWINWVKLRPGQGLEWIGDIYPGSYIPNYNEKFKNKATLTVDTSSSTAYMQLTSLASEDSALYYCAGGYFDVWGAGTTVTVSS VL: DIVMTQSPSSLSVSAGEKVTMSCKSSQSLLSSGNQKNYLAWYQQKPGQPPKLLIYGASTRESGVPDRFTGSGSGTDFTLTISSVQAEDLAVYYCQNDHSYPYTFGGGTKLEIK	
0.106	0.63														VH0 T30A Vk0 (antibody, human IgG1, V domains shown, Variant of VH0K0) VH: QVQLQQPGAELVKPGTSVKLSCKASGYNFASYWINWVKLRPGQGLEWIGDIYPGSYIPNYNEKFKNKATLTVDTSSSTAYMQLTSLASEDSALYYCAGGYFDVWGAGTTVTVSS VL: DIVMTQSPSSLSVSAGEKVTMSCKSSQSLLSSGNQKNYLAWYQQKPGQPPKLLIYGASTRESGVPDRFTGSGSGTDFTLTISSVQAEDLAVYYCQNDHSYPYTFGGGTKLEIK	
0.116	0.66														VH0 N28S Vk0 (antibody, human IgG1, V domains shown, Variant of VH0K0) VH: QVQLQQPGAELVKPGTSVKLSCKASGYSFTSYWINWVKLRPGQGLEWIGDIYPGSYIPNYNEKFKNKATLTVDTSSSTAYMQLTSLASEDSALYYCAGGYFDVWGAGTTVTVSS VL: DIVMTQSPSSLSVSAGEKVTMSCKSSQSLLSSGNQKNYLAWYQQKPGQPPKLLIYGASTRESGVPDRFTGSGSGTDFTLTISSVQAEDLAVYYCQNDHSYPYTFGGGTKLEIK	
		1.27	833	1.21	0.31	1000					1.11	1.14	1.93	0.6	H11K3 (full humanized antibody) (antibody, V domains shown, Humanized full antibody comprising hIgG1 Fc; also called VH11K3) VH: QVQLVQSGAEVKKPGSSVKVSCKASGYTFTSYWINWVRQAPGQGLEWIGDIYPGSYIPNYNEKFKNRATLTVDTSASTAYMELSSLRSEDTAVYYCAGGYFDVWGQGTTVTVSS VL: DIVMTQSPDSLAVSLGERATINCKSSQSLLSSGNQKNYLAWYQQKPGQPPKLLIYGASTRESGVPDRFSGSGSGTDFTLTISSLQAEDVAVYYCQNDHSYPYTFGQGTKLEIK	Kd (Human CD112R (PVRIG) [14]): 0.0788 nM; Relative Kd (against VH0K0 N28T) (Human CD112R (PVRIG) [14]): 0.63; koff (Human CD112R (PVRIG) [14]): 2.42e-05 s⁻¹; kon (Human CD112R (PVRIG) [14]): 307000 M⁻¹ s⁻¹; EC50 [11]: 0.26 nM; EC-90 [11]: 9.6 nM
